Patent US6514936 (Bayer, dated 2003)

T1: Human rhinovirus serotype 3 (HRV3), purified virion (human rhinovirus serotype 3, UniProt Q82081 562-855; Q82081 70-331; Q82081 332-561; Q82081 2-69)
T1 sequence 1: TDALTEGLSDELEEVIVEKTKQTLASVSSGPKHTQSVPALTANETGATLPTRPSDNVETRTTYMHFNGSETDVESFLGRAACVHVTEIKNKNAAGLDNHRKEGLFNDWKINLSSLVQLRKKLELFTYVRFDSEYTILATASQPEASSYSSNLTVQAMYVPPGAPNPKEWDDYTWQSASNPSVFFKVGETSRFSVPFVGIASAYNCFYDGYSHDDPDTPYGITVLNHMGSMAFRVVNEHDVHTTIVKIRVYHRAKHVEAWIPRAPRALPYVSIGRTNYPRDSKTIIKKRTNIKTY
T1 sequence 2: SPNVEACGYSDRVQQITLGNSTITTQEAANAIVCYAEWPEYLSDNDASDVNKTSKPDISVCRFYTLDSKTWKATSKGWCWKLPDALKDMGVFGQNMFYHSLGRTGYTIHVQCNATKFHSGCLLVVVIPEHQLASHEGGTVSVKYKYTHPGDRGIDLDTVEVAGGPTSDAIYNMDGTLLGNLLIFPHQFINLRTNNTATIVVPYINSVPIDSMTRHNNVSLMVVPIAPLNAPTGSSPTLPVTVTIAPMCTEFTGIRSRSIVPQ
T1 sequence 3: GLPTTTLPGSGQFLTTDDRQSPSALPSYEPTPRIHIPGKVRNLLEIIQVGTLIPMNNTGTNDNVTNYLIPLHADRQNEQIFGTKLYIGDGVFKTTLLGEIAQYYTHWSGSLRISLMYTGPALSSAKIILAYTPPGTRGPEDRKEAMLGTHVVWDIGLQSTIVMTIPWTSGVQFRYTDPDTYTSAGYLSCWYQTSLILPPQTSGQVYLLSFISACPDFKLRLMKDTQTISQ
T1 sequence 4: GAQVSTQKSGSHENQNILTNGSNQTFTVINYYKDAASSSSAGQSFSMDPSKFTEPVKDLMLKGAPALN


Columns and labels:
[1] = target: T1, Human rhinovirus serotype 3 (HRV3), …; assay: cell-based or functional assay
[2] = target: T1, Human rhinovirus serotype 3 (HRV3), …; assay: solid-phase competition against [35S]-HRV3 binding to ICAM-1-coated plates
[3] = target: T1, Human rhinovirus serotype 3 (HRV3), …; assay: pelleting assay, [35S]-cysteine-labelled ICAM mixed with HRV3 and centrifuged; average of 4 experiments
[4] = target: T1, Human rhinovirus serotype 3 (HRV3), …; assay: solid-phase competition, soluble ICAM against [35S]-HRV3 binding to ICAM-1-coated plates, 0.1% Triton X-100; average of three experiments ± S.D.
[5] = target: T1, Human rhinovirus serotype 3 (HRV3), …; assay: cell-based or functional assay; remark: listed apart in the source
[6] = target: T1, Human rhinovirus serotype 3 (HRV3), …; assay: dot-blot, normalised [35S]-HRV3 binding of immobilised ICAM against that of immobilised tICAM(453)

Binder | IC50, neutralization of HRV3 infectivity, Assay I (continuous) [1] [µM] | IC50, neutralization of HRV3 infectivity, Assay II (Pretreatment) [1] [µM] | IC50, neutralization of HRV3 infectivity, Assay III (high MOI) [1] [µM] | fold difference of IC50 against tICAM(453) [2] [fold] | fold higher IC50 than tmICAM [2] [fold] | % ICAM Pelleted [3] [%] | IC50 [4] [µM] | neutralization IC50 in Assay III relative to tICAM(185) [5] [fold] | ratio ICAM/tICAM (453) [6]
tICAM(185) (receptor, range 1-185; On the UniProt precursor it is shifted by the length of the signal peptide; also called truncated ICAM, domains I and II; two N-terminal domains of ICAM-1) QTSVSPSKVILPRGGSVLVTCSTSCDQPKLLGIETPLPKKELLLPGNNRKVYELSNVQEDSQPMCYSNCPDGQSTAKTFLTVYWTPERVELAPLPSWQPVGKNLTLRCQVEGGAPRANLTVVLLRGEKELKREPAVGEPAEVTTTVLVRRDHHGANFSCRTELDLRPQGLELFENTSAPYQLQTF | 8.2 | < 20 | 13.2 | 3 | 1000 | 4.3 | 9.7 | – | –
tICAM(453) (receptor, range 1-453; On the UniProt precursor it is shifted by the length of the signal peptide; also called truncated ICAM, domains I-V; entire extracellular domain of ICAM-1) QTSVSPSKVILPRGGSVLVTCSTSCDQPKLLGIETPLPKKELLLPGNNRKVYELSNVQEDSQPMCYSNCPDGQSTAKTFLTVYWTPERVELAPLPSWQPVGKNLTLRCQVEGGAPRANLTVVLLRGEKELKREPAVGEPAEVTTTVLVRRDHHGANFSCRTELDLRPQGLELFENTSAPYQLQTFVLPATPPQLVSPRVLEVDTQGTVVCSLDGLFPVSEAQVHLALGDQRLNPTVTYGNDSFSAKASVSVTAEDEGTQRLTCAVILGNQSQETLQTVTIYSFPAPNVILTKPEVSEGTEVTVKCEAHPRAKVTLNGVPAQPLGPRAQLLLKATPEDNGRSFSCSATLEVAGQLIHKNQTRELRVLYGPRLDERDCPGNWTWPENSQQTPMCQAWGNPLPELKCLKDGTFPLPIGESVTVTRDLEGTYLCRARSTQGEVTRKVTVNVLSPRYE | 0.38 | < 20 | 1.2 | – | 350 | 1 | 3.1 | 11 | –
Transmembrane intercellular adhesion molecule-1 (tmICAM-1) (receptor, human, UniProt P05362 28-532, looked up, mature; also called HRR; human rhinovirus receptor) QTSVSPSKVILPRGGSVLVTCSTSCDQPKLLGIETPLPKKELLLPGNNRKVYELSNVQEDSQPMCYSNCPDGQSTAKTFLTVYWTPERVELAPLPSWQPVGKNLTLRCQVEGGAPRANLTVVLLRGEKELKREPAVGEPAEVTTTVLVRRDHHGANFSCRTELDLRPQGLELFENTSAPYQLQTFVLPATPPQLVSPRVLEVDTQGTVVCSLDGLFPVSEAQVHLALGDQRLNPTVTYGNDSFSAKASVSVTAEDEGTQRLTCAVILGNQSQETLQTVTIYSFPAPNVILTKPEVSEGTEVTVKCEAHPRAKVTLNGVPAQPLGPRAQLLLKATPEDNGRSFSCSATLEVAGQLIHKNQTRELRVLYGPRLDERDCPGNWTWPENSQQTPMCQAWGNPLPELKCLKDGTFPLPIGESVTVTRDLEGTYLCRARSTQGEVTRKVTVNVLSPRYEIVIITVVAAAVIMGTAGLSTYLYNRQRKIKKYRLQQAQKGTPMKPNTQATPP | – | – | – | – | – | 11.6 | 0.008 | – | 2.3
